The assay concerns the target T1, PARP14 (Homo sapiens, UniProt Q460N5).
T1 construct: purchased BPS Bioscience Inc
The experiment in a line: Ribosylation assay: PARP14-mediated ADP-ribosylation of STAT1α. The assay is classed as biochemical. As to conditions: recombinant proteins; for PARP14-induced mono ADP-ribosylation at Glu657 and Glu705 of STAT1α: LC-MS/MS, MS1 AUC quantification. From the text:
The high resolution/accuracy LTQ-Orbitrap Elite (Thermo Scientific) analyzed TMT peptide samples and the Q Exactive (Thermo Scientific) analyzed in vitro ribosylated peptides. Both mass spectrometers are fronted with a Nanospray FLEX ion source, and coupled to an Easy-nLC1000 HPLC pump (Thermo Scientific). The peptides were subjected to a dual column set-up: an Acclaim PepMap RSLC C18 trap column, 75 um×20 cm (50 um×15 cm on the Q Exactive); and an Acclaim PepMap RSLC C18 analytical column 75 um×250 mm (Thermo Scientific). For TMT analysis the analytical gradient was run at 250 nl/min from 10 to 30% Solvent B (acetonitrile/0.1% formic acid) for 90 minutes, followed by five minutes of 95% Solvent B. Solvent A was 0.1% formic acid. For ribosylated peptides the gradient was run at 250 nl/min from 5 to 28% Solvent B for 30 minutes, followed by five minutes of 95% Solvent B. All reagents were HPLC-grade. […] Unmodified forms were calculated by subtracting the mass of the ADP-ribose (541. 06 Da) from the observed precursor. Modified and unmodified m/z values and corresponding retention time windows were submitted to an inclusion list and analyzed in using the data-independent acquisition module of the Q Exactive (R=35 K).
Recombinant human PARP14 and PARP9 (BPS Bioscience Inc.) proteins, and BSA (Sigma-Aldrich) were incubated with recombinant human STAT1α (OriGene Technologies, Inc.) or STAT6 protein (Sino Biological Inc.) at a final concentration of 5 ng/μl in the presence of 100 μM β-Nicotinamide adenine dinucleotide hydrate (NAD; Sigma-Aldrich) or 6-biotin-17-NAD (Trevigen, Inc.) in 50 mM Tris-HCl buffer (pH 7.4) for 1 hour at room temperature. Ribosylation of STAT1α and STAT6 was detected by LC-MS/MS after trypsin digestion or Western blotting using Streptavidin-HRP (Abcam) after SDS-PAGE. Quantification of the relative abundances of ribosylated STAT1α peptides was completed by calculating the area under the curve (AUC) of the extracted ion chromatograms (XICs) of the monoisotopic peaks of the modified versus unmodified peptides. […]

“Also recorded” adds a separate entry of the source.

T1 sequence (Q460N5 whole entry): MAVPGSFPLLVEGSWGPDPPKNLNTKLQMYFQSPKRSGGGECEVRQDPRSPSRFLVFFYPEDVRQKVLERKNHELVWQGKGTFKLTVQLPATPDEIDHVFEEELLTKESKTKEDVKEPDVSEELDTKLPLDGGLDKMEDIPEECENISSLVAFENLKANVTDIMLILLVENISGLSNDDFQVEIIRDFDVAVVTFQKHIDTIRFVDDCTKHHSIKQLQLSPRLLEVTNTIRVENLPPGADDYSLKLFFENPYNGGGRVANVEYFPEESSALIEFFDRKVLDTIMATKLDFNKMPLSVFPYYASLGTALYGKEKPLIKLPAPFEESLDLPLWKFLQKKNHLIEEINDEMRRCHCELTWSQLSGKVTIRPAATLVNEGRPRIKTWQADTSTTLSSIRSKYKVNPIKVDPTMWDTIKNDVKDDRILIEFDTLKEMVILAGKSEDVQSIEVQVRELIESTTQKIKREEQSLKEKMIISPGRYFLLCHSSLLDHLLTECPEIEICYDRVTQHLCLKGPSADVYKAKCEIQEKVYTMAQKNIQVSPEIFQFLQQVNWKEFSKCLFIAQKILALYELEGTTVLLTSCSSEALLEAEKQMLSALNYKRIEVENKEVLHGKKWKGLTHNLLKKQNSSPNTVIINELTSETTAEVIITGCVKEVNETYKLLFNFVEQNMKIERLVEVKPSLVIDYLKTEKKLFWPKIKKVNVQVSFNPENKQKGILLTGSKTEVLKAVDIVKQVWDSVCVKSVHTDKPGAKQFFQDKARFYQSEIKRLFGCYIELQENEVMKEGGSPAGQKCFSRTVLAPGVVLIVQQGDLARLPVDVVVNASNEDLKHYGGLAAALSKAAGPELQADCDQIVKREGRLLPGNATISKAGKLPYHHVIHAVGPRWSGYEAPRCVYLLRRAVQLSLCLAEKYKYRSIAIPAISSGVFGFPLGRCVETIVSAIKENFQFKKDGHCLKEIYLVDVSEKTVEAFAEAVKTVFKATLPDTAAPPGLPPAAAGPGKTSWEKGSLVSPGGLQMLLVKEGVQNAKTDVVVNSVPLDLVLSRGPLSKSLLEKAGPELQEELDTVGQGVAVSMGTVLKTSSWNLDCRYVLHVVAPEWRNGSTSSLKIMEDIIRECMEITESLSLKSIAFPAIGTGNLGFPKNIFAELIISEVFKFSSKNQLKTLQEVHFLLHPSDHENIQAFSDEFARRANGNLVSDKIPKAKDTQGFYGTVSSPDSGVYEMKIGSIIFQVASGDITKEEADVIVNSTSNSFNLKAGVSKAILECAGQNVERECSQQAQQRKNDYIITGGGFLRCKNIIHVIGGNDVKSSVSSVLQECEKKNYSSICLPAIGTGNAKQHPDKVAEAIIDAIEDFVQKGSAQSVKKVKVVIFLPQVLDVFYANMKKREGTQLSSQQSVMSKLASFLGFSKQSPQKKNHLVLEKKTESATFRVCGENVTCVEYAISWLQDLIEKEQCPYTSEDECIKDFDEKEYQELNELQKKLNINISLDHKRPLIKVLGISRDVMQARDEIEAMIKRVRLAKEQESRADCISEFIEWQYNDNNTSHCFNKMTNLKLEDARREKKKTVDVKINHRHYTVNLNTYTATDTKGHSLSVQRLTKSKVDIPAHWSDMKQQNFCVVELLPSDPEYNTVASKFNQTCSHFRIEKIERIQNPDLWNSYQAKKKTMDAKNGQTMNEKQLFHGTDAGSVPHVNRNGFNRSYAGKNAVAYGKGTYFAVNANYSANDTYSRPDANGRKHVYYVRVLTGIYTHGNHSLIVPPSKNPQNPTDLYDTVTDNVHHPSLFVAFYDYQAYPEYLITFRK

Consider “recombinant PARP9: Recombinant human PARP9 protein (BPS Bioscience Inc.) added to the PARP14 ribosylation assay”, for which the “PARP14-induced mono ADP-ribosylation at Glu657 and Glu705 of STAT1α” value was “inhibited”. Moreover, under “listed as PARP9”, the “PARP14-induced mono ADP-ribosylation at Glu657 and Glu705 of STAT1α” value is on record as “inhibition”. For the setting “protein ribosylation assay (Western blot)”, the “ADP-ribosylation of STAT1α by PARP14” value is “suppressed; also recorded: inhibits”.
